The source of these data is the RNAGym collection of RNA variant scans (doi:10.1093/nar/gkz1192).

First the molecules themselves.
B1: CPEB3 Ribozyme (parent)
chain: UAACAGGGGGCCACAGCAGAAGCGUUCACGUCGCAGCCCCUGUCAGAUUCUGGUGAAUCUGCGAAUUCUGCUGUAUAUCUC

The variants in the data set derive from B1. As to the kind of experiment: self-cleavage, relative activity (ratio to wild type); higher = more cleavage; in vitro, sequencing. In a few lines:
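Relative activity compares each variant's cleaved/total read fraction with that of the unmutated ribozyme. To get these fractions, barcoded CPEB3 ribozyme libraries from rounds of error-prone PCR were transcribed with T7 RNA polymerase for 5 hours at 37°C and then given 15 min of DNase I treatment before EDTA was added. The RNAs were reverse transcribed with template switching and sequenced on Illumina, and DNA sequencing linked barcodes to variants. A minimum of 5 reads applied, and three batches were averaged.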
On to G52C U69C, for which the self-cleavage was 0.86.

For G53A U60C, the self-cleavage was found to be 0.69.

For G53A U60A, the self-cleavage worked out at 0.68.

G52U U69A: the self-cleavage came to 0.72.

On to G52U U69C, for which the self-cleavage was determined as 0.73.

On to G52C U54G, for which the self-cleavage was determined as 1.12.

Regarding G52C U54A, the self-cleavage is 1.14.

G53U A64G: the self-cleavage was 0.97.

Take G52C U67C: the self-cleavage came to 0.57.

In the case of G52C U67A, the self-cleavage worked out at 0.88.

With G52U U76G, the self-cleavage turned out to be 1.19.

As to G52U U76C, the self-cleavage was determined as 1.19.

Consider G52U U76A, for which the self-cleavage was 1.24.

As for U54C U74G, the self-cleavage is 1.39.

For the variant U54C U74A, the self-cleavage worked out at 1.25.

Regarding U54C U74C, the self-cleavage was 1.21.

Regarding G53A C59U, the self-cleavage is 1.07.

Regarding G53A C59A, the self-cleavage amounted to 0.58.

With G53A A75C, the self-cleavage worked out at 1.18.

Take G52C G70U: the self-cleavage was 0.53.

For the variant G55A U60C, the self-cleavage came out at 0.25.

Consider G55A U60A, for which the self-cleavage is 0.44.

For U54G A64U, the self-cleavage was 0.28.

For the variant U54G A64G, the self-cleavage worked out at 0.6.

As to G55A A56G, the self-cleavage stood at 0.8.

Regarding G55A A56U, the self-cleavage worked out at 0.84.

Turning to G52U A56G, the self-cleavage is 1.14.

Consider G52U G61A, for which the self-cleavage amounted to 1.02.

On to G52U G61C, for which the self-cleavage came to 0.22.

G52A U54G: the self-cleavage amounted to 1.16.

Turning to G52U U67C, the self-cleavage was 0.32.

For G52U U67G, the self-cleavage is 0.33.

As to G52U U67A, the self-cleavage was 0.71.

With U54C U80A, the self-cleavage is 1.17.

For the variant U54C U80C, the self-cleavage is 1.09.

For the variant G52C, the self-cleavage was determined as 1.05.

For G52U, the self-cleavage stood at 1.13.

As for G53U U67C, the self-cleavage is 0.21.

As to U54G U67A, the self-cleavage is 0.57.

As for U54G U67G, the self-cleavage was 0.14.

Turning to U54G U67C, the self-cleavage stood at 0.32.

On to G52U G63A, for which the self-cleavage is 0.99.

For the variant G52U G63U, the self-cleavage worked out at 1.2.

In the case of U54C G61C, the self-cleavage turned out to be 0.3.

Turning to U54C G61A, the self-cleavage was found to be 0.65.

As for U54G G63U, the self-cleavage is 1.03.

For the variant U54G G63A, the self-cleavage turned out to be 0.91.

As to U54C U66G, the self-cleavage came out at 0.39.

Consider U54C U66C, for which the self-cleavage was found to be 0.37.

As for U54C U66A, the self-cleavage worked out at 0.52.

For U54G U58C, the self-cleavage was 0.39.

Turning to U54G U58A, the self-cleavage was 0.2.

In the case of G52U U78C, the self-cleavage is 1.08.

As to G53C A75G, the self-cleavage is 1.16.

For G53C A75U, the self-cleavage is 1.12.

Regarding G52A U58A, the self-cleavage worked out at 0.5.

Consider G52A U58G, for which the self-cleavage is 0.34.

On to G52A U58C, for which the self-cleavage turned out to be 0.68.

With U54A U67G, the self-cleavage was 0.36.

For the variant U54A U67C, the self-cleavage was found to be 0.46.

U54A U67A: the self-cleavage is 0.67.

Consider U54C G73U, for which the self-cleavage was 1.22.

U54C G73A: the self-cleavage was found to be 1.26.

Turning to U54C G73C, the self-cleavage came to 1.33.

On to G55A, for which the self-cleavage turned out to be 0.84.

Turning to G52U C68U, the self-cleavage worked out at 1.19.

With U54G G73A, the self-cleavage was found to be 1.17.

As for U54G C79A, the self-cleavage was determined as 1.18.

Consider U54A A64C, for which the self-cleavage amounted to 0.16.

Turning to U54A A64G, the self-cleavage is 0.92.

For U54A A64U, the self-cleavage was 0.37.

As for G52A U66G, the self-cleavage worked out at 0.76.

Consider G52A U66A, for which the self-cleavage came to 0.66.

For U54A G63A, the self-cleavage turned out to be 0.95.

For U54A C62G, the self-cleavage stood at 0.42.

Take U54A C62U: the self-cleavage stood at 0.25.

Take U54A C62A: the self-cleavage came to 0.32.

Turning to G52C U72C, the self-cleavage amounted to 1.24.

Turning to G52C U72A, the self-cleavage came to 1.

Consider G52A U60G, for which the self-cleavage was 0.44.

On to G52A U60C, for which the self-cleavage is 0.78.

As to G52A U60A, the self-cleavage turned out to be 0.4.

For the variant U54G A75U, the self-cleavage is 0.96.

As for G53C U78C, the self-cleavage came to 1.08.

As to G55A A64U, the self-cleavage was 0.25.

On to G55A A64G, for which the self-cleavage came to 0.61.

For the variant G53U U72C, the self-cleavage came out at 1.2.

With G53U U72A, the self-cleavage was 0.94.

In the case of U54G C68U, the self-cleavage stood at 0.68.

Regarding G53A U78C, the self-cleavage turned out to be 1.06.

In the case of G53A A77G, the self-cleavage is 1.18.

On to U54C U60A, for which the self-cleavage is 0.42.

As to U54C U60C, the self-cleavage came out at 0.39.

As to U54C U60G, the self-cleavage came out at 0.5.

As for G52C G61C, the self-cleavage worked out at 0.34.

Turning to U54G U72G, the self-cleavage amounted to 0.93.

As for U54G U72A, the self-cleavage is 0.41.

As to U54G U72C, the self-cleavage amounted to 1.16.

Turning to G53C C62G, the self-cleavage was 0.29.

As for U54C C79A, the self-cleavage stood at 1.18.

As for U54G U78A, the self-cleavage amounted to 1.

Regarding U54G U78C, the self-cleavage amounted to 0.68.

As for G53C U67C, the self-cleavage was determined as 0.17.

Regarding G53C U67G, the self-cleavage turned out to be 0.54.

Take G52C A65U: the self-cleavage was determined as 0.32.

Regarding G52C A65G, the self-cleavage stood at 0.49.

Regarding G53A U72G, the self-cleavage turned out to be 1.22.

In the case of G53A U72A, the self-cleavage is 0.79.

Consider G53A U72C, for which the self-cleavage amounted to 1.23.

On to G53A U76C, for which the self-cleavage came out at 1.01.

As to G53C U80A, the self-cleavage turned out to be 1.22.

For the variant G53C U80C, the self-cleavage was determined as 0.96.

As for U54A A65G, the self-cleavage worked out at 0.55.

As to U54A A65U, the self-cleavage was determined as 0.26.

As for U54A A65C, the self-cleavage is 0.29.

Regarding U54A A57U, the self-cleavage was 1.04.

As for U54A A57G, the self-cleavage came out at 0.91.

On to U54A A57C, for which the self-cleavage is 0.77.

Take G53C A65G: the self-cleavage was 0.67.

In the case of U54C C68G, the self-cleavage was 0.29.

Consider U54C C68A, for which the self-cleavage stood at 0.43.

As to U54C C68U, the self-cleavage was 1.09.

With G52U A64G, the self-cleavage stood at 1.08.

As for G52U A64U, the self-cleavage stood at 0.39.

Consider U54A G61U, for which the self-cleavage was 0.76.

For the variant U54A G61A, the self-cleavage is 0.73.

Turning to U54C A77G, the self-cleavage is 1.07.

Take U54C A77U: the self-cleavage stood at 1.07.

Consider U54C A77C, for which the self-cleavage was determined as 0.87.

For the variant U54A C71A, the self-cleavage came out at 0.42.

With G52U U72A, the self-cleavage came to 0.73.

For G52U U72G, the self-cleavage stood at 0.99.

G53C G55A: the self-cleavage was determined as 0.98.

Regarding U54C C62A, the self-cleavage stood at 0.13.

In the case of U54C C62G, the self-cleavage is 0.13.

As for U54C C62U, the self-cleavage came out at 0.18.

For U54G U74C, the self-cleavage came out at 0.92.

In the case of U54G U80C, the self-cleavage was 0.67.

G52A U78C: the self-cleavage was determined as 1.13.

In the case of G52A U78A, the self-cleavage came to 1.19.

In the case of G52A U80C, the self-cleavage was 1.18.

On to G52A U80A, for which the self-cleavage amounted to 1.15.

With G52A U74C, the self-cleavage stood at 1.26.

With G53A G61A, the self-cleavage turned out to be 0.73.

On to G53U U66G, for which the self-cleavage turned out to be 0.66.

Regarding G53U U58C, the self-cleavage was 1.08.

As to G53A A57G, the self-cleavage was 0.97.

With U54A G73A, the self-cleavage amounted to 1.25.

For the variant U54A G73U, the self-cleavage was 1.27.

Regarding U54A U78C, the self-cleavage amounted to 1.05.

U54A U78A: the self-cleavage turned out to be 1.19.

Consider U54A U80A, for which the self-cleavage was determined as 1.21.

Regarding U54A U80C, the self-cleavage is 1.14.

Take U54C A75U: the self-cleavage worked out at 1.2.

On to U54C A75G, for which the self-cleavage worked out at 0.88.

Consider G55A G61A, for which the self-cleavage is 0.39.

As to G55A A75G, the self-cleavage stood at 0.4.

Take U54C A64G: the self-cleavage amounted to 0.86.

As for U54C A64C, the self-cleavage stood at 0.46.

For U54C A64U, the self-cleavage amounted to 0.36.

Turning to G53C C71U, the self-cleavage worked out at 0.57.

Regarding G52U U66C, the self-cleavage is 0.54.

Turning to G52U U66A, the self-cleavage came out at 0.64.

With U54C A65G, the self-cleavage is 0.49.

As to U54C A65U, the self-cleavage turned out to be 0.32.

As for U54C A65C, the self-cleavage came to 0.4.

In the case of G55A U58C, the self-cleavage came out at 0.27.
